From patent US20240400657A1 (MorphoSys, published 2024)

Key:
[1] = molecular target: T1, C5aR expressed on purified human neutrophils (human, UniProt P21730 1-350); test: cell-based or functional assay
T1 sequence (looked up): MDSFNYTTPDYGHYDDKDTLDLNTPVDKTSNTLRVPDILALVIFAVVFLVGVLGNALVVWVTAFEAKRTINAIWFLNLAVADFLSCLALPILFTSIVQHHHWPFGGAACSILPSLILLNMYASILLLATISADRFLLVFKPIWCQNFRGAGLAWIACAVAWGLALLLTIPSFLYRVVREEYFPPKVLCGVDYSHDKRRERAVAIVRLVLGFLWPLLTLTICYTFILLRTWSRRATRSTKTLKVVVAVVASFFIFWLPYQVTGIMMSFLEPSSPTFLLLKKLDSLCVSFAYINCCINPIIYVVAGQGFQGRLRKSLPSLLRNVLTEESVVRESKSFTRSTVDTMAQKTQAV

rat transferrin = rat transferrin (rat, UniProt P12346 20-698); test: Octet based binding assay
cynomolgus transferrin = cynomolgus transferrin (cynomolgus, UniProt A0A2K5UXZ0 20-695); test: Octet based binding assay
[2] = molecular target: T2, cynomolgus C5aR_NT-bio peptide (cynomolgus monkey, biotin tag (position not given)); test: BLI (Octet), apparent (bivalent)
T2 construct: Chemically synthesized linear peptide (Genscript); also called cynomolgus C5aR N-terminal peptide; cynomolgus C5aR peptide
T2 peptide: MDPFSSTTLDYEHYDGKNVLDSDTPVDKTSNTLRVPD

Protein A = molecular target: T3, Protein A; test: Protein Panel Profiling (3P), MSD ECL, coated antigen, IgG 10 nM
T3 construct: control of the 3P panel
Procedure: (§1) 32 different proteins and controls were coated on two 384-well MSD standard plates at a concentration of 1.0 μg/mL at 4° C. over night. The coating solution was discarded and plates were blocked with 50 μL 3% (w/v) BSA in PBS for one hour at RT on a microtiter plate shaker (˜500 rpm) followed by three washing steps with 50 μL washing buffer (PBS with 0.05% (v/v) Tween 20). IgG samples were diluted to 100 nM and 10 nM in assay buffer (PBS with 0.5% (w/v) BSA, 0.05% (v/v) Tween 20). As controls, isotype control antibody MOR03207 (IgG1f_AEASS) and assay buffer were used. Samples and controls were added at 30 μL/well and incubated for three hours at RT on a microtiter plate shaker. The plates were washed three times and 30 μL detection antibody (ECL-labeled anti-human Fab) were added per well and incubated for one hour on a microtiter plate shaker (˜500 rpm). After washing the MSD plate and adding 35 μL/well MSD Read Buffer T with surfactant, electro-chemiluminescence signals were detected using a SECTOR® Imager S600 instrument (Meso Scale Diagnostics).
(§2) For evaluation, binding signals of the antibody sample to a certain protein were divided by the respective binding signals of the reference antibody MOR03207 resulting in a binding ratio (BR). The cumulative binding ratio (CBR) of all proteins except the controls (25 in total) was then calculated: CBR up to 150 indicates an IgG without detectable unspecific binding. Values above 150 indicates an IgG with increased unspecific binding compared to the reference antibody MOR03207.

Fc (h) = molecular target: T4, Fc (h); test: as above
T4 construct: '(h)' on the sheet read as human
Procedure: as §1, §2

Pepsinogen = test: as above
Procedure: as §1, §2

Amyloglycosidase = test: as above
Procedure: as §1, §2

Cytochrome C = test: as above
Procedure: as §1, §2

Lectin = test: as above
Procedure: as §1, §2

RNase B = test: as above
Procedure: as §1, §2

Serum albumin (h) = molecular target: T5, Serum albumin (h) (human); test: as above
T5 construct: '(h)' on the sheet read as human
Procedure: as §1, §2

RNase A = test: as above
Procedure: as §1, §2

Lysozyme = test: as above
Procedure: as §1, §2

anti-human Fc = molecular target: T6, anti-human Fc; test: as above
T6 construct: control of the 3P panel; it captures human IgG as such, so a ratio of 1 means a signal equal to that of MOR03207
Procedure: as §1, §2

Hemoglobin (h) = molecular target: T7, Hemoglobin (h) (human); test: as above
T7 construct: '(h)' on the sheet read as human
Procedure: as §1, §2

Antitrypsin = test: as above
Procedure: as §1, §2

[3] = molecular target: T8, Cell surface rec. 1_Lys (h); test: as above
T8 construct: identity not disclosed
Procedure: as §1, §2

[4] = molecular target: T9, Cell surface rec. 2_Fc (h); test: as above
T9 construct: identity not disclosed
Procedure: as §1, §2

[5] = molecular target: T10, Cell surface rec. 3_Fc (h); test: as above
T10 construct: identity not disclosed
Procedure: as §1, §2

GFP = test: as above
Procedure: as §1, §2

bovine transferrin = bovine transferrin (bovine, UniProt Q29443 20-704); test: as above
Procedure: as §1, §2

[6] = molecular target: T11, human C5aR_NT-bio peptide (human, biotin tag (position not given)); test: as above
T11 construct: Chemically synthesized linear peptide (Genscript); also called human C5aR N-terminal peptide; human C5aR peptide
T11 peptide: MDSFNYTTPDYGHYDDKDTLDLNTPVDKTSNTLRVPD

[7] = molecular target: T12, full length mouse C5aR stably expressed on CHO Flp-In cells (mouse (Mus musculus), UniProt P30993 1-351); test: FACS, CHO Flp-In cells expressing murine C5aR, single IgG concentration
T12 sequence: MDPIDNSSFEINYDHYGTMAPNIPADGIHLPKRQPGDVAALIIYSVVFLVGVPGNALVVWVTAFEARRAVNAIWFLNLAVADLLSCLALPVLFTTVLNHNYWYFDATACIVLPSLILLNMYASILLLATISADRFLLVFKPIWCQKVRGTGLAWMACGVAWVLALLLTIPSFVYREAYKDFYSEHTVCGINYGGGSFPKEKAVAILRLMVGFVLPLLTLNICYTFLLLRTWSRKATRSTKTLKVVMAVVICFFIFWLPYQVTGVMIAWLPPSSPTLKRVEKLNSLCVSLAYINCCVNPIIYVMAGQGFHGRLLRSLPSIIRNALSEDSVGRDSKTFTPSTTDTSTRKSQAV

[8] = molecular target: T2, cynomolgus C5aR_NT-bio peptide; test: SPR (Biacore T200), IgG captured on anti-human-Fc, peptide as analyte, 1:1 fit, monovalent; value marked * (for ranking purposes; fast kon, fast koff)

RNase A, sequence (P61823 27-150): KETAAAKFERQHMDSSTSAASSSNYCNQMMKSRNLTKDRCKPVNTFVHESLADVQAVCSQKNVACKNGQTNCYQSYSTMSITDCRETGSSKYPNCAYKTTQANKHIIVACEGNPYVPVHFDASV
RNase B, sequence (P61823 27-150): as above
bovine transferrin, sequence (Q29443 20-704 limits assumed): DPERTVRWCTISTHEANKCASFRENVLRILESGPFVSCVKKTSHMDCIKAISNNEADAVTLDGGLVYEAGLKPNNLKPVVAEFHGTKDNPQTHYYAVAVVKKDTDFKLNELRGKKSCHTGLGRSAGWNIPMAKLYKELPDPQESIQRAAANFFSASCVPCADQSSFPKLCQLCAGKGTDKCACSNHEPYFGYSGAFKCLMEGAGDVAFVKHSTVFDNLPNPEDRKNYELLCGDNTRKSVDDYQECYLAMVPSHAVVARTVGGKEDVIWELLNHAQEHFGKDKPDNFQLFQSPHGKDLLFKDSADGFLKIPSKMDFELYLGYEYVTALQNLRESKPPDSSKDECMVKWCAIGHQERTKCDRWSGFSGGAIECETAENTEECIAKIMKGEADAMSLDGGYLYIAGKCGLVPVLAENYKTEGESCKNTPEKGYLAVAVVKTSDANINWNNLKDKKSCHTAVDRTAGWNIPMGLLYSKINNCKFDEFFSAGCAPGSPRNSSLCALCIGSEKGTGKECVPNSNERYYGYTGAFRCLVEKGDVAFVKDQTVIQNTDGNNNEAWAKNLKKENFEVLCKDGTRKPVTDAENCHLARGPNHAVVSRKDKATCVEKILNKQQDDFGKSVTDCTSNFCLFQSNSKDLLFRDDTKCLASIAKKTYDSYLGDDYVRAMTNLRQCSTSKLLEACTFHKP
T5 sequence (P02768 25-609): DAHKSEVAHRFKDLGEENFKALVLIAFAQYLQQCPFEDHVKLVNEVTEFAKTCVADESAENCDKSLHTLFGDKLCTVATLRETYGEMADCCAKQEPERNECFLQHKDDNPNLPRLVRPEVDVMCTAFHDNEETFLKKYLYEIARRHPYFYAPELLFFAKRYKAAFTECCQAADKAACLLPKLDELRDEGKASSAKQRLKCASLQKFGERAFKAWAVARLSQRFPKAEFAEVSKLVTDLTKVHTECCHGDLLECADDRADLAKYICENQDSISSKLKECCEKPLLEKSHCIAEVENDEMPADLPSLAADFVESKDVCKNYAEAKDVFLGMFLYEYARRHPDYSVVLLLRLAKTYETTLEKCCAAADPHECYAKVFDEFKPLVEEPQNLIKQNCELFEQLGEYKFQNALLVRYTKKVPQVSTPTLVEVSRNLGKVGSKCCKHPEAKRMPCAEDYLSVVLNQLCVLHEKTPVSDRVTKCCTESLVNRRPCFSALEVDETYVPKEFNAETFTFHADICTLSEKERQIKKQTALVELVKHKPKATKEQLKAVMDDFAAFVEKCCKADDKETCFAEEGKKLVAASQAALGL
rat transferrin, sequence (P12346 20-698 limits assumed): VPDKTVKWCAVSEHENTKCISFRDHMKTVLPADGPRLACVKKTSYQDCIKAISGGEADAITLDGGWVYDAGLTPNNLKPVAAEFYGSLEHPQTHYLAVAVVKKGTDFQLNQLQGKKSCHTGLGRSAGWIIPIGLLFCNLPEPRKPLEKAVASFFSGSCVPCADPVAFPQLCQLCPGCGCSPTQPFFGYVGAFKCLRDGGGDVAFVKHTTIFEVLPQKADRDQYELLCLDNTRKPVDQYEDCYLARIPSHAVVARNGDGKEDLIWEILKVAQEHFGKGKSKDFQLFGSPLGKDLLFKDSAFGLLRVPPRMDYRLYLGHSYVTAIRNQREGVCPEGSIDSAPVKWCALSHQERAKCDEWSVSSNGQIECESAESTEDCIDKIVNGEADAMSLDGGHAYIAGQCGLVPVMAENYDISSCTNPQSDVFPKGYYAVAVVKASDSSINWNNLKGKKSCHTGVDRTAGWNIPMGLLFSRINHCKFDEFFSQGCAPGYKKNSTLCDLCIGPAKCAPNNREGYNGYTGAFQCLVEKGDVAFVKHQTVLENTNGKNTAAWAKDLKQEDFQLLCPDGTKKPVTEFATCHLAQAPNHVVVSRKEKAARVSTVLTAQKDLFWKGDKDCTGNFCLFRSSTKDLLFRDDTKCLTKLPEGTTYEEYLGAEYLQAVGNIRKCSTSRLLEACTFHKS
T7 sequence (P69905 2-142, chain 1 of 2): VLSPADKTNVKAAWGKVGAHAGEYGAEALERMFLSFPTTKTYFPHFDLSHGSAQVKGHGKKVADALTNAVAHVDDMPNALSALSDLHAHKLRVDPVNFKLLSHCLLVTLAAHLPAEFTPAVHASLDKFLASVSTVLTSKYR
T7 sequence (P68871 2-147, chain 2 of 2, further chain): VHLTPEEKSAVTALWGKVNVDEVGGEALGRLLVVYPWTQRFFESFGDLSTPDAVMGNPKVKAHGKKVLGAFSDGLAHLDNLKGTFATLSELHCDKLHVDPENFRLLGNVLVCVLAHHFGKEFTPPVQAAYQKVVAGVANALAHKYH
Lysozyme, sequence (P00698 19-147): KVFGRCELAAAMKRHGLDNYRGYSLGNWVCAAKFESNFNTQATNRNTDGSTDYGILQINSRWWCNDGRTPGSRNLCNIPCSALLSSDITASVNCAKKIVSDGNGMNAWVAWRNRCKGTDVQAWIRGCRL

Binder	IgG concentration for 50% inhibition of CD11b upregulation, granulocytes, 15 nM human C5a [1] [nM]	IgG concentration for 50% inhibition of CD11b upregulation, granulocytes, 150 nM human C5a [1] [nM]	binding result (rat transferrin)	binding result (cynomolgus transferrin)	fold weaker binding than to the human C5aR peptide [2] [fold]	binding ratio (signal / signal of MOR03207) (Protein A)	binding ratio (signal / signal of MOR03207) (Fc (h))	binding ratio (signal / signal of MOR03207) (Pepsinogen)	binding ratio (signal / signal of MOR03207) (Amyloglycosidase)	binding ratio (signal / signal of MOR03207) (Cytochrome C)	binding ratio (signal / signal of MOR03207) (Lectin)	binding ratio (signal / signal of MOR03207) (RNase B)	binding ratio (signal / signal of MOR03207) (Serum albumin (h))	binding ratio (signal / signal of MOR03207) (RNase A)	binding ratio (signal / signal of MOR03207) (Lysozyme)	binding ratio (signal / signal of MOR03207) (anti-human Fc)	binding ratio (signal / signal of MOR03207) (Hemoglobin (h))	binding ratio (signal / signal of MOR03207) (Antitrypsin)	binding ratio (signal / signal of MOR03207) [3]	binding ratio (signal / signal of MOR03207) [4]	other results
MAB #2 (antibody, human IgG1, lambda, lambda 1 light chain) heavy: EVQLVESGGGLVKPGGSLRLSCAASGFTFSSYAMHWVRQAPGKGLEWVGRIKSVAQGGTTDYAAHVKGRFTISRDDSKNTLYLQMNSLKTEDTAVYYCARVSHSTFDVWGQGTLVTVSSASTKGPSVFPLAPSSKSTSGGTAALGCLVKDYFPEPVTVSWNSGALTSGVHTFPAVLQSSGLYSLSSVVTVPSSSLGTQTYICNVNHKPSNTKVDKRVEPKSCDKTHTCPPCPAPEAEGAPSVFLFPPKPKDTLMISRTPEVTCVVVDVSHEDPEVKFNWYVDGVEVHNAKTKPREEQYNSTYRVVSVLTVLHQDWLNGKEYKCKVSNKALPSSIEKTISKAKGQPREPQVYTLPPSREEMTKNQVSLTCLVKGFYPSDIAVEWESNGQPENNYKTTPPVLDSDGSFFLYSKLTVDKSRWQQGNVFSCSVMHEALHNHYTQKSLSLSPGK light: not shown	17	114	no binding	no binding	~1000	1	1	1	1	1	1	1	1	2	1	1	1	2	1	1	binding ratio (signal / signal of MOR03207) [5]: 2; binding ratio (signal / signal of MOR03207) (GFP): 1; binding ratio (signal / signal of MOR03207) (bovine transferrin): 4; binding ratio (signal / signal of MOR03207) [6]: 46; binding result [7]: no binding (tested: 300 nM); Kd [8]: 34 µM; koff [8]: 0.145 s⁻¹; kon [8]: 4290 M⁻¹ s⁻¹
MAB #1 (antibody, human IgG1, lambda, lambda 1 light chain, VH3-15 framework) heavy: EVQLVESGGGLVKPGGSLRLSCAASGFTFSSYAMHWVRQAPGKGLEWVGRIKSKAQGGTTDYAAHVKGRFTISRDDSKNTLYLQMNSLKTEDTAVYYCARVSFSTFDVWGQGTLVTVSSASTKGPSVFPLAPSSKSTSGGTAALGCLVKDYFPEPVTVSWNSGALTSGVHTFPAVLQSSGLYSLSSVVTVPSSSLGTQTYICNVNHKPSNTKVDKRVEPKSCDKTHTCPPCPAPEAEGAPSVFLFPPKPKDTLMISRTPEVTCVVVDVSHEDPEVKFNWYVDGVEVHNAKTKPREEQYNSTYRVVSVLTVLHQDWLNGKEYKCKVSNKALPSSIEKTISKAKGQPREPQVYTLPPSREEMTKNQVSLTCLVKGFYPSDIAVEWESNGQPENNYKTTPPVLDSDGSFFLYSKLTVDKSRWQQGNVFSCSVMHEALHNHYTQKSLSLSPGK light: not shown	12	42	no binding	no binding	~1000	1	1	1	1	1	1	1	2	2	1	1	1	1	1	1	binding ratio (signal / signal of MOR03207) [5]: 2; binding ratio (signal / signal of MOR03207) (GFP): 1; binding ratio (signal / signal of MOR03207) (bovine transferrin): 8; binding ratio (signal / signal of MOR03207) [6]: 82; binding result [7]: no binding (tested: 300 nM); Kd [8]: 8.2 µM; koff [8]: 0.111 s⁻¹; kon [8]: 13600 M⁻¹ s⁻¹
